Substrate in this series: CCCCCCCCCCCC(=O)O
Nature of the series: MTAN/LuxS-coupled DTNB colorimetric methyltransferase assay. The format is biochemical, Drosophila melanogaster. The settings on record: 500 μM SAM, 50 mM potassium phosphate pH 8.0, 30 °C, 3 μM enzyme, 5–200 μM lauric acid.

Data on one protein can be found in PMC4823748, “Production of FAME biodiesel in E. coli by direct methylation with an insect enzyme” (Scientific Reports, 2016).

B1: DmJHAMT (Drosophila melanogaster) (protein)
chain: MNQASLYQHANQVQRHDAKLILDEFASTMQWRSDGEDALLDVGSGSGNVLMDFVKPLLPIRGQLVGTDISSQMVHYASKHYQREERTRFQVLDIGCERLPEELSGRFDHVTSFYCLHWVQNLKGALGNIYNLLKPEGGDCLLAFLASNPVYEVYKILKTNDKWSTFMQDVENFISPLHYSLSPGEEFSQLLNDVGFVQHNVEIRNEVFVYEGVRTLKDNVKAICPFLERMPADLHEQFLDDFIDIVISMNLQQGENNEDQKFLSPYKLVVAYARKTPEFVNNVFLEPTHQNLVKGIN
notes: primers encode N-terminus MNQASLYQH and C-terminus QNLVKGIN-stop
A word on the Km: it is the substrate concentration at which the rate is half of its maximum. By kcat is commonly meant the number of substrate molecules converted per active site and unit of time at saturation. Turning to B1, the Km came out at 59 µM and the kcat was determined as 0.15 min⁻¹.
